Reference: publication PMC5927468, “A noncanonical role for dynamin-1 in regulating early stages of clathrin-mediated endocytosis in non-neuronal cells” (PLoS Biology, 2018)

Tests used:
Dyn1a^S774/8A-eGFP = biological target: T1, Dyn1a^S774/8A-eGFP (UniProt Q05193 1-864, S774/8A | S774/8A); test: co-IP; GFP-nAb agarose, 0.5 mg A549 post-nuclear fraction, 2 h at 4 °C; beads washed with buffer 3 (0.5% Triton X-100, 25 mM HEPES, 150 mM KCl, 1 mM MgCl2, 2 mM EGTA, pH 7.4); immunoblot; conditions: partners not purified
T1 construct: dynamin-1 cDNA, C-terminal splice variant "a" (Dyn1a), in the retroviral vector pMIEG, with S774 and S778 changed to alanine; also called Dyn1^S774/8A-eGFP; Dyn1^S774/8A; source: A549 Dyn1^KO cells, retroviral transduction, in lysate (post-nuclear fraction); not shown: eGFP, C-terminal, kept
T1 sequence (looked up): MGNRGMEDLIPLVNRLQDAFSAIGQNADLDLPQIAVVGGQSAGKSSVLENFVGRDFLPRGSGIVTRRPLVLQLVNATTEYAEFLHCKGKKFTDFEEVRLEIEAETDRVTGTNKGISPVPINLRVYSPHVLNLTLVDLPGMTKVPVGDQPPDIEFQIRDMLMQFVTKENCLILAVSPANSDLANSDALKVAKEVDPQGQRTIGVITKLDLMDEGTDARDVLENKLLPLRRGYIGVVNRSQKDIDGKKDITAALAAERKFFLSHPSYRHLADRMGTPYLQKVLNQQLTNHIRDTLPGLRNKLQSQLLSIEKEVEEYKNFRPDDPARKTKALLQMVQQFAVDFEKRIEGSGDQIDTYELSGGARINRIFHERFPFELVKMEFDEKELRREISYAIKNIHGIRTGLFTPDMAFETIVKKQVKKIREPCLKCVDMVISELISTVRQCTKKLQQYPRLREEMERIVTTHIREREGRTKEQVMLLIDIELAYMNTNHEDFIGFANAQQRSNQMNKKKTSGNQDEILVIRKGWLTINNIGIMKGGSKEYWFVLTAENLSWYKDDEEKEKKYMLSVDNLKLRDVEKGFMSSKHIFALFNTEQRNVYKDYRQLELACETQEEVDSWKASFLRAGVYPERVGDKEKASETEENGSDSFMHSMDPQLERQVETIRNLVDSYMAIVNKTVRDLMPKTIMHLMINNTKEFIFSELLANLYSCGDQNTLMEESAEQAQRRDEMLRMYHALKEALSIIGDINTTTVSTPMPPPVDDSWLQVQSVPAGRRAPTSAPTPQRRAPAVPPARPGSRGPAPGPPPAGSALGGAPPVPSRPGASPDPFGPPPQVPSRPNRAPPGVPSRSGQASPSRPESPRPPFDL

Dyn1a^WT-eGFP = biological target: T2, Dyn1a^WT-eGFP (UniProt Q05193 1-864); test: as above; conditions: partners not purified
T2 construct: dynamin-1 cDNA, C-terminal splice variant "a" (Dyn1a), in the retroviral vector pMIEG; also called Dyn1a-eGFP; Dyn1-eGFP; source: A549 Dyn1^KO cells, retroviral transduction, in lysate (post-nuclear fraction); not shown: eGFP, C-terminal, kept
T2 sequence (looked up): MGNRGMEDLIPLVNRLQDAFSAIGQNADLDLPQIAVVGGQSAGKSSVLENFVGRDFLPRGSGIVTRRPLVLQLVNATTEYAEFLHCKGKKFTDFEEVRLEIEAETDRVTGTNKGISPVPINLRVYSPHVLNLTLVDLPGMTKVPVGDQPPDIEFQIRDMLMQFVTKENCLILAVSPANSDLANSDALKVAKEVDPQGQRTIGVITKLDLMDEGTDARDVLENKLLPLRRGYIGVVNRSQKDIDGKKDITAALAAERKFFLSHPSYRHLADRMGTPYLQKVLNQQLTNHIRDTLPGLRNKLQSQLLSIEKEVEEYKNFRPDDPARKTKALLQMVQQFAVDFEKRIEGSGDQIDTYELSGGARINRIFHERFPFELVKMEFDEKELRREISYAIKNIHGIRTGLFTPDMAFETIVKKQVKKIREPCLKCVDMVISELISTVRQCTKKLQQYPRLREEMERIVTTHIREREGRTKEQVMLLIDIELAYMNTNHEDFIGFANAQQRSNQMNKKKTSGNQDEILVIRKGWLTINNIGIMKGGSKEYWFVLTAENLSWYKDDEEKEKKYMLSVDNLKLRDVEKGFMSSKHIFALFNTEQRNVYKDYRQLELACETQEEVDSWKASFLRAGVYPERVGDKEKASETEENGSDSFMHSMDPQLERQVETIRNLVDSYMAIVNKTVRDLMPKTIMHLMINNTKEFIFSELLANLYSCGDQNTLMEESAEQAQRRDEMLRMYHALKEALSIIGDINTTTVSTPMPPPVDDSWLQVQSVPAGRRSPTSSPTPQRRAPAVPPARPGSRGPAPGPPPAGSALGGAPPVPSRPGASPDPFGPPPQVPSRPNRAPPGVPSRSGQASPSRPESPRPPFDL

ratio of SNX9 binding to Dyn1^S774/8A versus Dyn1^WT (Dyn1a^S774/8A-eGFP): 3.6 | ratio of SNX9 binding to Dyn1 versus Dyn2 (Dyn1a^WT-eGFP): 1.7
B1: sorting nexin 9, endogenous in A549 cells (natural protein, human (endogenous in A549), UniProt Q9Y5X1 1-595, looked up)
chain: MATKARVMYDFAAEPGNNELTVNEGEIITITNPDVGGGWLEGRNIKGERGLVPTDYVEILPSDGKDQFSCGNSVADQAFLDSLSASTAQASSSAASNNHQVGSGNDPWSAWSASKSGNWESSEGWGAQPEGAGAQRNTNTPNNWDTAFGHPQAYQGPATGDDDDWDEDWDGPKSSSYFKDSESADAGGAQRGNSRASSSSMKIPLNKFPGFAKPGTEQYLLAKQLAKPKEKIPIIVGDYGPMWVYPTSTFDCVVADPRKGSKMYGLKSYIEYQLTPTNTNRSVNHRYKHFDWLYERLLVKFGSAIPIPSLPDKQVTGRFEEEFIKMRMERLQAWMTRMCRHPVISESEVFQQFLNFRDEKEWKTGKRKAERDELAGVMIFSTMEPEAPDLDLVEIEQKCEAVGKFTKAMDDGVKELLTVGQEHWKRCTGPLPKEYQKIGKALQSLATVFSSSGYQGETDLNDAITEAGKTYEEIASLVAEQPKKDLHFLMECNHEYKGFLGCFPDIIGTHKGAIEKVKESDKLVATSKITLQDKQNMVKRVSIMSYALQAEMNHFHSNRIYDYNSVIRLYLEQQVQFYETIAEKLRQALSRFPVM
notes: sorting nexin 9, endogenous; also called SNX9; source: endogenous, A549 (Dyn1^KO or Dyn2^KO, reconstituted) lysate
